Experimental data as given in US6060513A, “Compounds and compositions for delivering active agents” (Emisphere Technologies, Inc., priority 1997, dated 2000).

Test: In Vivo Interferon Delivery (ELISA for human interferon)
Parameters: species or system Rats
Settings: 1 mg/kg interferon, no carrier

Substance: interferon
- Mean peak serum interferon concentration (IC): 79±100
- Mean peak serum interferon concentration (PO): 1951±1857
